The source of these data is US5910570.

Assay [1] concerns the target T1, synthetic acceptor peptide Arg-Thr-Pro-Pro-Pro (RTPPP).
T1 sequence (peptide): RTPPP

Assay [2] has as its target synthetic acceptor peptide Pro-Pro-Ala-D-Ser-Thr-D-Ser-Ala-Pro-Gly (PPAdSTdSAPG).
Assay [3] concerns the target T2, synthetic acceptor peptide Arg-Ser-Pro-Pro-Pro (RSPPP).
T2 sequence (peptide): RSPPP

Assay [4] deals with synthetic acceptor peptide Pro-Pro-Ala-D-Ser-Thr-D-Ser-Ala-Pro-Gly (PPAdSTdSAPG). This is another data set of the same source.
In assay [5] the target is T2, synthetic acceptor peptide Arg-Ser-Pro-Pro-Pro (RSPPP). This is another data set of the same source.
Assay [6] addresses bovine cytochrome C, native (bovine) (UniProt P62894).
Assay [7] addresses bovine cytochrome C, reduced and carboxymethylated (bovine) (UniProt P62894).
Assay [8] concerns the target T3, subtilisin, native (Bacillus amyloliquefaciens (Bacillus velezensis)) (UniProt P00782).
T3 sequence: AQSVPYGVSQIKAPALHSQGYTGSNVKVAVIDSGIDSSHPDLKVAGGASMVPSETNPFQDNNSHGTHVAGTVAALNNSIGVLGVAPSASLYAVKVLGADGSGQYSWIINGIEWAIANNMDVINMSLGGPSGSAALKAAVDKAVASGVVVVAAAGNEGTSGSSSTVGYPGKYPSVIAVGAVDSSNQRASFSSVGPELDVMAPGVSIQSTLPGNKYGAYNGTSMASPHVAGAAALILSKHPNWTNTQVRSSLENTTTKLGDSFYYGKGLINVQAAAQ

The target of assay [9] is T4, subtilisin, reduced and carboxymethylated (Bacillus amyloliquefaciens (Bacillus velezensis)) (UniProt P00782).
T4 sequence (chain, reduced and carboxymethylated): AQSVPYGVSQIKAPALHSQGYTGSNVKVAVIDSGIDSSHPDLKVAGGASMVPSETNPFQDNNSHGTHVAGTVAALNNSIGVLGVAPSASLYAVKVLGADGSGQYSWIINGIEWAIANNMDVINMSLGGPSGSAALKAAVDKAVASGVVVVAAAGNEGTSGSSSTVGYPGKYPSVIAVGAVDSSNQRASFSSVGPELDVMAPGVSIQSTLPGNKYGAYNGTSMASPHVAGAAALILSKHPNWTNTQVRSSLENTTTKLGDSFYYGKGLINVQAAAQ

The target in assay [10] is T5, bovine rhodanese, reduced and carboxymethylated (bovine) (UniProt P00586).
T5 sequence (chain, reduced and carboxymethylated): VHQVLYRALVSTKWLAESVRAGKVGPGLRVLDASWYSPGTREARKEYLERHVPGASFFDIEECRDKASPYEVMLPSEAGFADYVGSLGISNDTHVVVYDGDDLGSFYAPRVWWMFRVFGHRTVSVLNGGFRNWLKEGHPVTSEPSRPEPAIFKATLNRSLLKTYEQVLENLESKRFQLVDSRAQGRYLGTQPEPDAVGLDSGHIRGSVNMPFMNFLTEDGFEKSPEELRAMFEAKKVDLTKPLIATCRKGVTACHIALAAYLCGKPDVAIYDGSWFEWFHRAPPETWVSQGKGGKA

The target of assay [11] is T6, bovine rhodanese, native (bovine) (UniProt P00586).
T6 sequence: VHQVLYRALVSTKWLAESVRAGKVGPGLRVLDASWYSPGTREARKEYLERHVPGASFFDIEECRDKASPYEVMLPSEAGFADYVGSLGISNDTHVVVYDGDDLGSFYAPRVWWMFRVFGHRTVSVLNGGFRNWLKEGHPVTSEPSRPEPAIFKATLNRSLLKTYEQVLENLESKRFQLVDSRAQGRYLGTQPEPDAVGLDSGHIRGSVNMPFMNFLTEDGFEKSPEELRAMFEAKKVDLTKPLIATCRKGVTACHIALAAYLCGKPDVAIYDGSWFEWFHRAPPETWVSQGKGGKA

myelin basic protein, sequence (P02687 whole entry): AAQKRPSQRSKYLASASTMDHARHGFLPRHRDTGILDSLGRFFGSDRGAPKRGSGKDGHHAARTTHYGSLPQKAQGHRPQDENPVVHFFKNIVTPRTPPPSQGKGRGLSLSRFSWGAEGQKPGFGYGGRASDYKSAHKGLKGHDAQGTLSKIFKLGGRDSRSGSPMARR

B1: UDP-GalNAc:polypeptide N-acetylgalactosaminyltransferase purified from bovine colostrum (enzyme)
chain: GLPAGDVLEPVQKPHEGPGEMGKPVVIPKEDQEKMKEMFKINQFNLMASEMIALNRSLPDVRLEGCKTKVYPDNLPTTSVVIVFHNEAWSTLLRTVHSVINRSPRHMLEEIVLVDDASERDFLKRPLESYVKKLKVPVHVIRMEQRSGLIRARLKGAAVSKGQVITFLDAHCECTVGWLEPLLARIKHDRKTVVCPIIDVISDDTFEYMAGSDMTYGGFNWKLNFRWYPVPQREMDRRKGDRTLPVRTPTMAGGLFSIDRDYFQEIGTYDAGMDIWGGENLEISFRIWQCGGTLEIVTCSHVGHVFRKATPYTFPGGTGQIINKNNRRLAEVWMDEFKNFFYIISPGVTKVDYGDISSRLGLRHKLQCRPFSWYLENIYPDSQIPRHYFSLGEIRNVETNQCLDNMARKENEKVGIFNCHGMGGNQVFSYTANKEIRTDDLCLDVSKLNGPVTMLKCHHLKGNQLWEYDPVKLTLQHVNSNQCLDKATDEDSQVPSIRDCSGSRSQQWLLRNVTLPEIF
modifications: native glycoprotein (peptide N-glycosidase F shifts it by approximately 6 kDa)
For orientation: Km means the concentration of substrate that gives half-maximal velocity. For the molecule B1, the Km in [1] was found to be 3.3 mM. The Vmax/Km in assay [1] stood at 183 M⁻¹ s⁻¹; in assay [2], 1.2 M⁻¹ s⁻¹; in assay [3], 0.4 M⁻¹ s⁻¹. For the same molecule, the Product formed was 2 nmol/min/mg in assay [4]; 0.67 nmol/min/mg in assay [5]; less than 0.1 nmol/min/mg in assay [6]; 22.2 nmol/min/mg with myelin basic protein; less than 0.1 nmol/min/mg in [7]; less than 0.1 nmol/min/mg in assay [8]. Further, the results for the Product formed in assay [9], in [10] and in assay [11] were 0.6 nmol/min/mg, 3.3 nmol/min/mg and less than 0.1 nmol/min/mg, respectively.
